Experiment [1] concerns the target gp140UG37 (ARP698, Polymun) (HIV-1 strain UG037). The experiment can be described thus: ELISA.
The target in experiment [2] is recombinant gp41 (ARP680) (HIV-1). The experiment can be described thus: ELISA.

This is an account of results in paper PMC6640723 (2019).

B1: VHH 2E7 (VHH)
VHH: DVQLQESGGGLVQPGGSLRLSCAASGNIVSIDAAGWFRQAPGKQREPVATILTGGATNYADSVKGRFTISRDNAKNTVYLQMNSLKPEDTAVYYCYAPMIYYGGRYSDYWGQGTQVTVS
As to B1, the IC50 in experiment [1] was 0.9 nM; in experiment [2], 3.2 nM.
